Assay: soluble on expression in E. coli; label from the status in PepcDB or PDB records

| Sequence | soluble on expression in E. coli |
| --- | --- |
| MGSDKIHHHHHHMHSMALPESSYERLRAADCADEIAYVRACLRLYFSGAAAAAGDVSMPNLSAAAVADIARLNKVATFVLKVLSRAPVGERPAELFQWLDTYRRRTVSMNAACLMDSMVIHQALRDRQIDFVFLKGPFQQHLLYDDHFMKPSGDVDILVSPAGFSRARDALRSIGYEVSGKSRSVWWVRFLGEQHMIRGNGPSTVDLHYRLQQPGSPSPRDADGFLRRKRLVEITGTEVPFTSAADTLMLSCISVAKALFNHEPCAGYVCDIRASANRLGEADQQRVLDAAVSQGLDDTLLLGLRAADVLLGATGTLLSERAKPILSRIGNEDLLNMVIAPWLSSLRWPQRRTVLWELCGRAPVRYLAEAAWAASADISRRIFERPASP | not soluble |
| MIKSYKIRGTSLTVNRSDSYPDACNWTADSFGMLFYDPEYDLSTESLSITLDAGNDWVPEGGLVYESLPVKVTYENPEMMDYGTDWFNQGYSALGWNGEEYAYLGTDRGIVNILLEEDEKILYPNEEYDLKEGYTLKVTDLASDKACLTLSRNKLPVYSSIISPGKSADLGTHTFLYKKELNGVEVPLFSVYVDSVIQGDELSAVNLKHLLHFSDSPLELNYGKEYGELTIVETYPKLRLENKHVVWSGSDINVTEDIWIGRFEKKTAGNLFVTFYPYMNKVENVRSILPSVSSWSIPAMSIEEYLIGVLEHHHHHH | not soluble |
| VLRHISPAFAEDPLRVLRAARFMARLAPLGFSIAPETLAMMRQMAANGELNSLIPERIWKELSRSLTYTQPAAFLHTLRTVNALEVVLPELNALYGVPQHADYHPEIDTGLHQELVSDIAAKLAPGDMLIGFAALCHDLGKALTPRATWPHHPMHEQRGMAPTQQLSERLKVPRNYQQLALIACREHLNVHRLSKLHDNTVYELLQRCDAFRRPERIAQLAIVCEADYRGRYGHEDANYPQG | not soluble |
| MGSDKIHHHHHHMSKKTYYYHSESEDLVSSAQQDFQLPDDYQFFREGVAWQFWNGLVRSLACAFAWLYSRLFLLVKVKGKEKLRPFKKQGYFVYGNHTQMLGDPFNPMTIVNPYHYYALAAQANWGIPFLGKYVIPAAGLPVGKNIKQSIRLLKDVKYAYEEKQAAIVIYPEAHLWPYYTKIRPFPATSFNFPVSLKAPAFAMTTTYQPCRWRKRPKITVYIDGPFYPDEKLGKKAAQEKLHGEIAKSMQERAKLSTCEYCSYVKIDSKN | not soluble |
| MIPSRSARIIAKLQRLHSTTSAASVSSIDVKEVEKFGDLSAEWADELGPFHALHSLNRIRVPWIVDNVRKSDQKAPPRLVDVGSGGGLLSIPLARSGFDVTGIDATKQAVEAANQSLTAKPLQIAGISKRLRFEHTSVEDFCQKPHNKSAYDAVVASEIVEHVADLPGFIGCLAELARPGAPLFITTINRTWLSKLAAIWLAENVLKIVPPGVHDWEKFITPAELTSHLEKAGCRVTAVHGLMFHPVGNHWTWIESTQCNYGILAVKN | not soluble |
| QNTLAENQFNQRRTIETTLMGSIISAFRARGDAGAREILTEWKDSPVSSGVYVIQGDEKKDILNRYIDSYTIERARLFAAGHPHSNLVHIEYDRFGEEYLFFTKDWDKLQARRLPSPLLIPGLPLAPIWHE | not soluble |
| MALKAQNTISGKEGRLFLDGEEMAHIKTFEANVEKNKSEVNIMGRRMTGHKTTGANGTGTATFYKVTSQFVLIMMDYVKKGSDPYFTLQAVLDDASSGRGTERVTLYDVNFDSPKIAGLDVDSEALEEEVPFTFEDFDVPEQLKSTFLEHHHHHH | soluble |
| MSGGKLPEGWATSTINEMCNLNPKLKLDDDLDVGFMPMAGVPTTYLGKCNFETKKWSEVKKGFTQFQNDDVIFAKITPCFENGKAVVIKEFPNGYGAGSTEYYVLRSINGLINPHWLFALVKTKDFLTNGALNMSGSVGHKRVTKEFLENYGVPVPPLAEQKVIAEKLDTLLAQVDSTKARLEQIPQILKRFRQSVIVAAVNGQLTKELHKKNKFKLTELNISIPSLWKISEIGQFADVKGGKRLPKGESLIAENTGFPYIRAGQLKNGTVLPEGQLYLEEYIQKSISRYTVSSGDLYITIVGACIGDAGIIPDVYNNANLTENAAKICNLNENIFNRFLSLWLRSSYLQDIINSEIKSGAQGKLALARIKSLPLILPPLQEQHEIVRRVEQLFAYADTIEKQVNNALTRVNSLTQSILAKAFRGELTAQWRAENPELISGENSAAALLEKIKAERAASGGKKTSRKKA | not soluble |
| GMYEEWKIVKREAPILGNDQLIENIWKMKREDSPYDIISLHKVNLIGGGNDAVLILPGTWSSGEQLVTISWNGVHYTIPDYRKSIVLYLARNGFNVYTIDYRTHYVPPFLKDRQLSFTANWGWSTWISDIKEVVSFIKRDSGQERIYLAGESFGGIAALNYSSLYWKNDIKGLILLDGGPTKHGIRPKFYTPEVNSIEEMEAKGIYVIPSRGGPNNPIWSYALANPDMPSPDPKYKSISDFLMDSLYVTGSANPYDYPYSKKEDMFPILASFDPYWPYRLSLERDLKFDYEGILVPTIAFVSERFGIQIFDSKILPSNSEIILLKGYGHLDVYTGENSEKDVNSVVLKWLSQQR | soluble |
| MGSDKIHHHHHHMNIELADLRLFVMIAECGNLTHGAARAFLSPPAASARIKAMEQEIGQQLLVRKNKGVELTPSGDALLRHARLVLRQFDFLTDDMTNAQMGHLRIYANTTGVTEFLPAILARFLADHPGVRVDLQERLTQEIIRAVADGTADIGIISGTEGRDGLERLRFATDRLMLAVPSGHHLAHHDQVSLEQTLAFEHIALHDGSTLLDFLRRQLRRSAFDRQLRIQVRSFEAMCRLIEAGVGIGVVPESAALRHLQTMDITLLALADDWAVRDRSILVRRWADLPQSAQRLIDLLVEKEAGGAEV | not soluble |
| MAHHHHHHMSKSIAVIAAGAPAALVQAASAMVSKATGGAVKAMQATSAASNAIVVGMQAPRGVYACVAEPPSTASGPYAGVKTVVVRAILPRRAPDTMQVRDILDVYPASGITCEQETAEAVESFSKAAKVAVEKAKAMKATRVTLVMKPATKYERLNSLFRETCTKTIEAAGLSVETATTAAATNTLIMFPEKMSVVMVSDDPVCENVQYAFAGVVGGAHTTYYTDAGSTIHGGHSYKSVAMALAEELKSLGMKAEAAKVEAAAQKSPRNAAAAM | not soluble |
| MSITINKLEIENVKRIKAVKIEPSATGLTIIGGNNNQGKTSVLDAIAWALGGNKYKPSQAMREGSQVPPTLKITMSNGLIVERKGKNASLKVIDPNGQKGGQQLLDSFVEELAINLPKFMDSTPKEKADVLLEIIGVGDQLAELELKEKEIYNQRHAIGVIADQKEKFAKEMTYYPDAPKQLVSISELIQQHQAILAKNGENAQKRQNVERIRYDYNQSILEVDRLRKLLADAEAKTNKLSEDLKIANTDAMDLHDESTAEIEANIADIDEVNRKVRANFDKDKAEEDAKQQREQYNILTNDIESIRQQKRDLLINADLPLEGLSVDDGKLLYLGQEWDNMSGSQQLIVATAIVRKLKPDCGFVLIDKLEQMDNITLEQFGKRLEQEGLQAIATRVSIGEECAIIIEDGYSVENKAHNFKTAEGGNFAETVAPTWKGEF | not soluble |
| MGSDKIHHHHHHMDKYLSANSLEGVIDNEFSMPAPRWLNTYPAGPYRFINREFFIIAYETDPDLLQAILPPDMELLEPVVKFEFIRMPDSTGFGDYTESGQVVPVRYKGEEGGFTISMFLDCHAPIAGGREIWGFPKKLAKPKLFVEEDTLIGILKYGSIDIAIATMGYKHRPLDAEKVLESVKKPVFLLKNIPNVDGTPLVNQLTKTYLTDITVKGAWTGPGSLELHPHALAPISNLYIKKIVSVSHFITDLTLPYGKVVADYLA | not soluble |
| SFDNSLSRELSRKQNENQMFVYSFEASASMLSSDTEYIQKNDIEKIIDSVKRSMGESQIGITIVNQKEKAIYTDSKIGKNIKIKDLKDNNFGYLIFKNNGSYYLETMSKMTIESGTYYISIVSSINEVYNDINEMMKN | not soluble |
| QGIETVTKANGYETLLAHFSYDELEEERKIASLLSYQVDGLILTESHHTPRTLQMIKNAGVPVVETMELPPQPIDMAVGLDHEDASYNAVKRMLDAGKRTIVYFGARLDTRTKLRMQGYDRAMNEAGLEPKHVLTGVHSSFSLAHDLLERALKTYPTLDGVFCTNDDIAIGTMLSAQQRGIQVPQQLAVVGYNALDIGQTISPKLTSVDTPRFQIGVKSAELLIARLKGEAQEEKVFDMGYQITSGESV | not soluble |

Source: the DeepSol protein solubility set
